Experimental findings from patent US9580508B2, “Bispecific EGFR/c-Met antibodies” (Janssen Biotech, Inc., priority 2012, dated 2017) are described below.

Residue numbers refer to the chain shown, from its start.

The chains are these.
B1: P54CR4-31: EGFR-binding FN3 domain, SEQ ID NO: 26 (protein)
chain: LPAPKNLVVSEVTEDSLRLSWTAPDAAFDSFLIQYQESEKVGEAINLTVPGSERSYDLTGLKPGTEYTVSIYGVLGSYVFEHDVMLPLSAEFTT
modifications: EGFR binding FN3 domain
B2: P54CR4-31v2: stabilized EGFR-binding FN3 domain, SEQ ID NO: 28 (protein)
chain: B1 chain with L17A, N46V, E91I
modifications: EGFR binding FN3 domain
B3: P54AR4-83: EGFR-binding FN3 domain, SEQ ID NO: 25 (protein)
chain: LPAPKNLVVSEVTEDSLRLSWDDPWAFYESFLIQYQESEKVGEAINLTVPGSERSYDLTGLKPGTEYTVSIYGVHNVYKDTNMRGLPLSAEFTT
modifications: EGFR binding FN3 domain
B4: P54AR4-37v2: stabilized EGFR-binding FN3 domain, SEQ ID NO: 29 (protein)
chain: B3 chain with D22T, D23W, W25Y, F27D, Y28L, E29D
modifications: EGFR binding FN3 domain
B5: P54AR4-37: EGFR-binding FN3 domain, listed with SEQ ID NO: 22 in Table 6 (protein)
chain: B3 chain with D22T, D23W, W25Y, F27D, Y28L, E29D
modifications: EGFR binding FN3 domain
B6: P114AR7P92-G8: c-Met-binding FN3 domain, SEQ ID NO: 36 (protein)
chain: LPAPKNLVVSRVTEDSARLSWTAPDAAFDSFVIRYFEFLGSGEAIVLTVPGSERSYDLTGLKPGTEYVVQILGVKGGYISIPLSAIFTT
modifications: c-Met binding FN3 domain
B7: P114AR7P94-E5: c-Met-binding FN3 domain, SEQ ID NO: 42 (protein)
chain: B6 chain with V32W, V68A, Q70N, L72M, Y78R, I79V, I81V
modifications: c-Met binding FN3 domain
B8: P114AR7P95-H8: c-Met-binding FN3 domain, SEQ ID NO: 49 (protein)
chain: B6 chain with V32W, L39V, G40S, S41K, Q70N, L72M, Y78S, I81P
modifications: c-Met binding FN3 domain
B9: P114AR7P93-G8: c-Met-binding FN3 domain, SEQ ID NO: 39 (protein)
chain: B6 chain with V32W, G60D, V68G, Q70T, L72N, Y78R, I79V, I81T
modifications: c-Met binding FN3 domain
B10: P114AR7P92-F6: c-Met-binding FN3 domain, SEQ ID NO: 35 (protein)
chain: B6 chain with V32W, Q70N, Y78G, I79L, I81V
modifications: c-Met binding FN3 domain
B11: P114AR7P95-G7: c-Met-binding FN3 domain, SEQ ID NO: 48 (protein)
chain: B6 chain with V32W, F38L, G40S, S41T, Q70N, L72M, Y78S, I81P
modifications: c-Met binding FN3 domain
B12: P114AR7P95-F10: c-Met-binding FN3 domain, SEQ ID NO: 47 (protein)
chain: B6 chain with V32W, L39T, G40T, S41A, Q70N, L72M, Y78S, I81P
modifications: c-Met binding FN3 domain
B13: P114AR7P95-D4: c-Met-binding FN3 domain, SEQ ID NO: 45 (protein)
chain: B6 chain with V32W
modifications: c-Met binding FN3 domain
B14: P114AR7P92-H5: c-Met-binding FN3 domain, SEQ ID NO: 37 (protein)
chain: B6 chain with V32W, F36L, G40L, S41G, L72M, Y78T, I79V, I81P
modifications: c-Met binding FN3 domain
B15: P114AR7P93-H9: c-Met-binding FN3 domain, SEQ ID NO: 40 (protein)
chain: B6 chain with V32W, L72I, Y78H, I81L
modifications: c-Met binding FN3 domain
B16: P114AR5P74-A5: c-Met-binding FN3 domain, SEQ ID NO: 32 (protein)
chain: B6 chain with V32W, F36D, F38V, L39V, G40V, S41G, V68Y, Q70N, Y78S, I81V
modifications: c-Met binding FN3 domain
B17: P114AR7P94-A3: c-Met-binding FN3 domain, SEQ ID NO: 41 (protein)
chain: B6 chain with V32W, Q70N, L72M, Y78K, I81P
modifications: c-Met binding FN3 domain
B18: ECB94: bispecific FN3: P54AR4-83v22-(AP)5-P114AR7P94-A3v22, SEQ ID NO: 61 (protein)
chain: MLPAPKNLVVSEVTEDSARLSWDDPWAFYESFLIQYQESEKVGEAIVLTVPGSERSYDLTGLKPGTEYTVSIYGVHNVYKDTNIRGLPLSAIFTTAPAPAPAPAPLPAPKNLVVSRVTEDSARLSWTAPDAAFDSFWIRYFEFLGSGEAIVLTVPGSERSYDLTGLKPGTEYVVNILGVKGGKISPPLSAIFTT
modifications: bispecific EGFR/cMet binding molecule
B19: ECB95: bispecific FN3: P54AR4-83v22-(AP)5-P114AR9P121-A6v2, SEQ ID NO: 62 (protein)
chain: B18 chain with L144V, K183S
modifications: bispecific EGFR/cMet binding molecule
B20: ECB106: bispecific FN3: P54AR4-83v23-(AP)5-P114AR7P94-A3v22, SEQ ID NO: 65 (protein)
chain: B18 chain with W26H
modifications: bispecific EGFR/cMet binding molecule
B21: ECB109: bispecific FN3: P54AR4-83v23-(AP)5-P114AR7P95-C5v2, SEQ ID NO: 68 (protein)
chain: B18 chain with W26H, G178S, K183S
modifications: bispecific EGFR/cMet binding molecule
B22: ECB15: bispecific FN3: P54AR4-83v2-(AP)5-P114AR7P94-A3, SEQ ID NO: 57 (protein)
chain: B18 chain with I84M, L177M
modifications: bispecific EGFR/cMet binding molecule
B23: ECB107: bispecific FN3: P54AR4-83v23-(AP)5-P114AR9P121-A6v2, SEQ ID NO: 66 (protein)
chain: B18 chain with W26H, L144V, K183S
modifications: bispecific EGFR/cMet binding molecule
B24: ECB96: bispecific FN3: P54AR4-83v22-(AP)5-P114AR9P122-A7v2, SEQ ID NO: 63 (protein)
chain: B18 chain with L144V, G145S, S146K, E148D, K183S
modifications: bispecific EGFR/cMet binding molecule
B25: ECB108: bispecific FN3: P54AR4-83v23-(AP)5-P114AR9P122-A7v2, SEQ ID NO: 67 (protein)
chain: B18 chain with W26H, L144V, G145S, S146K, E148D, K183S
modifications: bispecific EGFR/cMet binding molecule
B26: ECB97: bispecific FN3: P54AR4-83v22-(AP)5-P114AR7P95-C5v2, SEQ ID NO: 64 (protein)
chain: B18 chain with G178S, K183S
modifications: bispecific EGFR/cMet binding molecule

Test system in one data set: not listed separately
Kind of data set: Differential scanning calorimetry in PBS (thermal stability). Format: physicochemical. The note with it: DSC in PBS. The source says: A subset of the EGFR binding FN3 domains was engineered to increase the conformational stability of each molecule. […] The new mutants, P54AR5-83v2, P54CR431-v2, and P54AR4-37v2 were expressed and purified as described above. Differential scanning calorimetry in PBS was used to assess the stability of each mutant in order to compare it to that of the corresponding parent molecule.
Thermal Stability of c-Met-binding FN3 Domains Differential Scanning Calorimetry in PBS was Used to Assess the Stability of Each FN3 Domain.
In general terms: In DSC, transitions show as peaks or steps in heat flow.
As to B1, the “Tm (° C.)” value was 60.9 °C.

Regarding B2, the “Tm (° C.)” value was found to be 78.9 °C.

Regarding B3, the “Tm (° C.)” value turned out to be 50.6 °C.

Turning to B4, the “Tm (° C.)” value stood at 64.2 °C.

Consider B5, for which the “Tm (° C.)” value stood at 45.9 °C.

In the case of B6, the “Thermal Stability (Tm, C.)” value is listed as 90.9 C.

As for B7, the “Thermal Stability (Tm, C.)” value amounted to 80 C.

Turning to B8, the “Thermal Stability (Tm, C.)” value turned out to be 83 C.

As for B9, the “Thermal Stability (Tm, C.)” value came to 76.8 C.

Regarding B10, the “Thermal Stability (Tm, C.)” value came to 76.8 C.

With B11, the “Thermal Stability (Tm, C.)” value was 87.2 C.

As to B12, the “Thermal Stability (Tm, C.)” value was 85.2 C.

B13: the “Thermal Stability (Tm, C.)” value stood at 85.3 C.

Turning to B14, the “Thermal Stability (Tm, C.)” value worked out at 87 C.

For B15, the “Thermal Stability (Tm, C.)” value turned out to be 88.2 C.

In the case of B16, the “Thermal Stability (Tm, C.)” value was found to be 74.1 C.

For B17, the “Thermal Stability (Tm, C.)” value turned out to be 86.2 C.

The test system of another data set is NCI-H292 cells. In words: HGF-induced NCI-H292 cell proliferation. The note with it: read-out: H292-HGF Proliferation inhibition in HGF-induced H292 cells (IC50). Format: cell-based, human. An excerpt: The proliferation assay was completed using different combinations EGFR and c-Met binding FN3 domains either as a mixture or linked in a bispecific format. […] This confirmed that the avidity effect observed at the level of the receptors (FIG. 4 and FIG. 5) translates into an improvement in inhibiting cell signaling (Table 12) and cell proliferation (Table 13).
Select bispecific EGFR/c-Met molecules were characterized for their affinity to both EGFR and c-Met, their ability to inhibit EGFR and c-Met autophosphorylation, and their effect on proliferation of HGF cells. Binding affinity of the bispecific EGFR/c-Met molecules to recombinant EGFR and/or c-Met extracellular domain was further evaluated by surface Plasmon resonance methods using a Proteon Instrument (BioRad) according to protocol described in Example 3.
In the case of B18, the IC50 stood at 29.6 nM.

On to B19, for which the IC50 was 383 nM.

For B20, the IC50 is 484 nM.

Take B21: the IC50 turned out to be 574 nM.

On to B22, for which the IC50 is 23 nM.

As to B23, the IC50 was found to be 2640 nM.

Take B24: the IC50 turned out to be 9480 nM.

On to B25, for which the IC50 was 11400 nM.

Consider B26, for which the IC50 turned out to be 31 nM.
